Results reported in US20250215104A1 (published 2025).

Biological target: human suPAR (hsuPAR) recombinant protein (human, UniProt Q03405 23-303)
Test: BLI; avid

Chain of human suPAR (hsuPAR) recombinant protein (Q03405 23-303): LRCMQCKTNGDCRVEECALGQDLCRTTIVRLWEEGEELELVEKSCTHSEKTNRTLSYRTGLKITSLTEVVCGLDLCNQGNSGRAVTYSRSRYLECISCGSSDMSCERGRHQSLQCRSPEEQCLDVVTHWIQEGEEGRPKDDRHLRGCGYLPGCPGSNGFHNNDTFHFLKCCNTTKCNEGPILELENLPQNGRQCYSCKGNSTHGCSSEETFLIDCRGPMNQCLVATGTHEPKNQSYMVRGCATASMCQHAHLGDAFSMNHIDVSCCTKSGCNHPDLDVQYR

Kd: < 1 pM
B1: WAb0014 (antibody, V domains shown)
VH: QVQLVQSGAEVKKPGASVKVSCKASGYTFTNYYMHWVRQAPGQGLEWMGWIDHESGSTIYAQKFQGRVTMTRDTSTSTVYMELSSLRSEDTAVYYCARGYDVDWFVYWGQGTLVTVSS
VL: DIQMTQSPSSLSASVGDRVTITCSARQSVSYMYWYQQKPGKAPKLLIYRTSNLASGVPSRFSGSGSGTDFTLTISSLQPEDFATYYCQQYHSYPPTFGGGTKVEIKR
